Results on one molecule are retold here after paper PMC3608519 (Journal of immunology (Baltimore, Md. : 1950), 2013).

For this test, the target named is RSV fusion (F) protein ectodomain (Human respiratory syncytial virus; …, UniProt P03420). Put plainly: SPR. (In general: In SPR one partner is held on a chip, and binding of the other changes the refractive index at the surface.)
RSV fusion (F) protein ectodomain, sequence (P03420 26-524): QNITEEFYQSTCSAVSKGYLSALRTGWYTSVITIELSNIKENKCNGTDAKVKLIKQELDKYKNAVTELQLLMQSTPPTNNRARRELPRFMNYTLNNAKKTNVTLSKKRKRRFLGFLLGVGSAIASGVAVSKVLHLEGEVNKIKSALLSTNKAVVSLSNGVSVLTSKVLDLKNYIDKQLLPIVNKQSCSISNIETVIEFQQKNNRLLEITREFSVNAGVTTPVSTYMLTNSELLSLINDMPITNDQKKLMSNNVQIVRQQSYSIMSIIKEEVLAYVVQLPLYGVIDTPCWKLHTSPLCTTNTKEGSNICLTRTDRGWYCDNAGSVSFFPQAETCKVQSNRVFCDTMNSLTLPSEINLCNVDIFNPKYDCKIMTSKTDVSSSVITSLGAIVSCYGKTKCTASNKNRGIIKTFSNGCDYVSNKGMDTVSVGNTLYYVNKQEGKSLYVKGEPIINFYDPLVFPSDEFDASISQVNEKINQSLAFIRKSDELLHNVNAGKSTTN

B1: Fab19 (fully matured, wild-type) (Fab, V domains shown)
VH: VQLLEVESGGGLRPGGSLRLSCAASGTTLSGYTMHWVRQAPGKGLEWVSSITGGSNFINYSDSVKGRFTISRDNAKNSLYLQMNSLTAEDTAVYYCATAPIAPPYFDHWGQGTLVTVSS
VL: ELTQSPSSLSASVGDRVTITCRATQSVSNFLNWYQQKPGEAPTLLIYDASTSQSGVPSRFSGSGSGMDFSLTISSLQPEDLAMYYCQASINTPLFGGGTRIDMR
One may read the koff as the rate constant with which the complex falls apart. Higher therefore signals a short-lived complex. In turn, B1 registered an off-rate constant (koff) of 0.0057 s⁻¹.
